In patent publication US20110020361A1:

Target: cell surface-associated mesothelin (UniProt Q13421)
Experiment: flow cytometry titration of IgG1 m912 on H9 cells, medium fluorescent units

50% binding: 5 to 10 nM
Substance: IgG1 m912 (antibody)
